The results in this text go back to PMC10897178, “FANCJ DNA helicase is recruited to the replisome by AND-1 to ensure genome stability” (EMBO Reports, 2024).

First the molecules themselves.
B2: 6xHis-tagged AND-1 SepB (domain or fragment, human, UniProt O75717 336-826, looked up)
chain: GDFLNDNAVEIPSFSKGIINDDEDDEDLMMASGRPRQRSHILEDDENSVDISMLKTGSSLLKEEEEDGQEGSIHNLPLVTSQRPFYDGPMPTPRQKPFQSGSTPLHLTHRFMVWNSIGIIRCYNDEQDNAIDVEFHDTSIHHATHLSNTLNYTIADLSHEAILLACESTDELASKLHCLHFSSWDSSKEWIIDLPQNEDIEAICLGQGWAAAATSALLLRLFTIGGVQKEVFSLAGPVVSMAGHGEQLFIVYHRGTGFDGDQCLGVQLLELGKKKKQILHGDPLPLTRKSYLAWIGFSAEGTPCYVDSEGIVRMLNRGLGNTWTPICNTREHCKGKSDHYWVVGIHENPQQLRCIPCKGSRFPPTLPRPAVAILSFKLPYCQIATEKGQMEEQFWRSVIFHNHLDYLAKNGYEYEESTKNQATKEQQELLMKMLALSCKLEREFRCVELADLMTQNAVNLAIKYASRSRKLILAQKLSELAVEKAAELTAT
notes: AND-1 (WDHD1), human, SepB domain, amino-acid residues 336-826; pRSF-Duet-1 construct from Luca Pellegrini; purification as in Kilkenny et al, 2017; also called 6xHis-SepB; AND-1 SepB domain; source: E. coli BL21 (DE3), purified

Conditions in all cases: both partners purified
For assay [1], the target named is T1, Flag-tagged FANCJ wild type (human, UniProt Q9BX63 1-1249).
T1 construct: FANCJ (BRIP1, BACH1) DNA helicase, human, open reading frame; purified as full-length protein; Plasmid from Hisao Masai (Uno et al, 2012); also called FANCJ WT; Flag-FANCJ WT; source: HEK 293T, transiently transfected (pCSII-EF-MCS): in whole-cell extract or nuclear fraction; also purified (anti-Flag M2 agarose, 3x Flag-peptide elution)
T1 sequence (looked up): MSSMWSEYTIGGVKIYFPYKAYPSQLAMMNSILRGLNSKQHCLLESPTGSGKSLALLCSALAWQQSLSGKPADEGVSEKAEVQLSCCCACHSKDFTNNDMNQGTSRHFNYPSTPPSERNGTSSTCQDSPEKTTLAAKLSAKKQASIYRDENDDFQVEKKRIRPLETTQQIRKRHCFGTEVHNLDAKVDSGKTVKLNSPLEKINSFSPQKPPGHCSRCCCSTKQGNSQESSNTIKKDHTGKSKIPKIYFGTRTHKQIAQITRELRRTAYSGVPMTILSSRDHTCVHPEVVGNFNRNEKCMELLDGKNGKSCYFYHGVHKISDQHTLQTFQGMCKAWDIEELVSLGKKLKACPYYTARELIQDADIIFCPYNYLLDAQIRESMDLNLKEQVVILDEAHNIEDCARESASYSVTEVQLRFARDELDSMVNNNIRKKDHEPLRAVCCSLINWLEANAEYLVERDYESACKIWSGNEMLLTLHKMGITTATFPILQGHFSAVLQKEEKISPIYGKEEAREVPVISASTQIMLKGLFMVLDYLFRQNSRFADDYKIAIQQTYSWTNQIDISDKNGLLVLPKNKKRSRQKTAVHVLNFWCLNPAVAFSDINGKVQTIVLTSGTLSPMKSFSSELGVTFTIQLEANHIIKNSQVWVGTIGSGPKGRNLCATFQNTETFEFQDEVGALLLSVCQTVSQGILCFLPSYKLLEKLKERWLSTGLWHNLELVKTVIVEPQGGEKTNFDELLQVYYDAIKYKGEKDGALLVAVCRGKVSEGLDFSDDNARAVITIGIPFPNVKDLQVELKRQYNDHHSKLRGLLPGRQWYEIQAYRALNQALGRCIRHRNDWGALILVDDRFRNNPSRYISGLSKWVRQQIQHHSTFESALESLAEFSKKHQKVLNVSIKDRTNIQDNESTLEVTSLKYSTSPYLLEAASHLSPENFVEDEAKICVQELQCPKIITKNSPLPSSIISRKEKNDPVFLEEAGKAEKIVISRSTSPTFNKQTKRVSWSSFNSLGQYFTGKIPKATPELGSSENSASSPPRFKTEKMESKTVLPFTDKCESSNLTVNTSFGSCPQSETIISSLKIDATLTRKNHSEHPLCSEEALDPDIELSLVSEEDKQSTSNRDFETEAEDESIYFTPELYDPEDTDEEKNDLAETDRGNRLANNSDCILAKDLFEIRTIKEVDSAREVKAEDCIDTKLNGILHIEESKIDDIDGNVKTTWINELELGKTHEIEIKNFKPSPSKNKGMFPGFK
As to the kind of experiment: pull-down; His10-Myc-AND-1 (12 μg) on c-Myc magnetic beads, purified FANCJ (4 μg) added; PBS, 5% glycerol, 0.5 mM TCEP, 0.2% Igepal, Benzonase, 2 h at 4 °C; Western blot.

Assay [2] has as its target T1, Flag-tagged FANCJ wild type. As to the kind of experiment: pull-down; Flag-tagged protein (2 µg) on anti-Flag M2 agarose beads, purified AND-1 SepB (4 µg) added; 20 mM HEPES-NaOH pH 7.2, 150 mM NaCl, 0.1% Igepal, 1% BSA, 4 °C; Western blot.
The assay “6xHis-tagged AND-1 SepB” deals with B2. The assay can be described thus: pull-down; GST-FANCJ CIP box on Glutathione Sepharose 4B beads, purified AND-1 SepB (0.5 mg in 500 μL) added; PD Buffer 1 with 1% BSA, 1 h at 4 °C; SDS-PAGE, Coomassie.

B1: full-length 10xHis-Myc-tagged AND-1 (natural protein, human, UniProt O75717 1-1129, looked up)
chain: MPATRKPMRYGHTEGHTEVCFDDSGSFIVTCGSDGDVRIWEDLDDDDPKFINVGEKAYSCALKSGKLVTAVSNNTIQVHTFPEGVPDGILTRFTTNANHVVFNGDGTKIAAGSSDFLVKIVDVMDSSQQKTFRGHDAPVLSLSFDPKDIFLASASCDGSVRVWQISDQTCAISWPLLQKCNDVINAKSICRLAWQPKSGKLLAIPVEKSVKLYRRESWSHQFDLSDNFISQTLNIVTWSPCGQYLAAGSINGLIIVWNVETKDCMERVKHEKGYAICGLAWHPTCGRISYTDAEGNLGLLENVCDPSGKTSSSKVSSRVEKDYNDLFDGDDMSNAGDFLNDNAVEIPSFSKGIINDDEDDEDLMMASGRPRQRSHILEDDENSVDISMLKTGSSLLKEEEEDGQEGSIHNLPLVTSQRPFYDGPMPTPRQKPFQSGSTPLHLTHRFMVWNSIGIIRCYNDEQDNAIDVEFHDTSIHHATHLSNTLNYTIADLSHEAILLACESTDELASKLHCLHFSSWDSSKEWIIDLPQNEDIEAICLGQGWAAAATSALLLRLFTIGGVQKEVFSLAGPVVSMAGHGEQLFIVYHRGTGFDGDQCLGVQLLELGKKKKQILHGDPLPLTRKSYLAWIGFSAEGTPCYVDSEGIVRMLNRGLGNTWTPICNTREHCKGKSDHYWVVGIHENPQQLRCIPCKGSRFPPTLPRPAVAILSFKLPYCQIATEKGQMEEQFWRSVIFHNHLDYLAKNGYEYEESTKNQATKEQQELLMKMLALSCKLEREFRCVELADLMTQNAVNLAIKYASRSRKLILAQKLSELAVEKAAELTATQVEEEEEEEDFRKKLNAGYSNTATEWSQPRFRNQVEEDAEDSGEADDEEKPEIHKPGQNSFSKSTNSSDVSAKSGAVTFSSQGRVNPFKVSASSKEPAMSMNSARSTNILDNMGKSSKKSTALSRTTNNEKSPIIKPLIPKPKPKQASAASYFQKRNSQTNKTEEVKEENLKNVLSETPAICPPQNTENQRPKTGFQMWLEENRSNILSDNPDFSDEADIIKEGMIRFRVLSTEERKVWANKAKGETASEGTEAKKRKRVVDESDETENQEEKAKENLNLSKKQKPLDFSTNQKLSAFAFKQE
notes: AND-1 (WDHD1), human, full length, amino-acid residues 1-1129; pFBDM construct from Luca Pellegrini (Kilkenny et al, 2017); also called His10-Myc-tagged AND-1; AND-1 full-length; source: High-Five insect cells, baculovirus, purified (Ni-NTA, HiTrap Q)
On to B1, for which the binding result in assay [1] is “binds”.

Consider B2, for which the binding result in assay [2] is listed as “binds”.

B3: GST-FANCJ CIP box wild type (domain or fragment, human, UniProt Q9BX63 730-747, looked up)
chain: GEKTNFDELLQVYYDAIK
notes: FANCJ (BRIP1), human, CIP box, amino-acid residues 730-747; also called GST-CIP box WT; source: transformed cells cultured in LB medium, IPTG-induced (pGEX-6P-1); captured from the soluble extract on Glutathione Sepharose 4B beads
Turning to B3, the binding result with 6xHis-tagged AND-1 SepB is on record as “binds”.
